Here are results for 78 sequences from the supplement of paper PMC10126150.

± gives the standard deviation of the averaged measurements.

In the data set the test system is ATP. The data set is described as follows: switch fluorescence ratio, 500 uM ATP over buffer (Cy3 cluster intensity, sum of 5 cycles each) (fold (ratio)); higher = stronger signal-on switching upon ATP binding; sequences stand for … in TCGTCGGCAGCGTCAGATGTGTATAAGAGACAGTTTTTTTTTTTTTTTTTTTTTTTTT…TC. The note with it: aptamer strand: ATP DNA aptamer (quencher-CACCTGGGGGAGTATTGCGGAGGAAGG + anchor), 100 nM annealed; ATP concentration: 500 uM. In outline: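 The quencher-labelled ATP aptamer, at 100 nM, was annealed to Cy3-labelled switching-strand clusters on a modified Illumina MiSeq flow-cell. The clusters were imaged in selection buffer, then after 15 min with 500 uM ATP at 22 °C, and this buffer/ATP cycle ran five times with NaOH stripping and re-annealing between runs. Per-cluster fluorescence ratios, summed target-cycle over summed buffer-cycle Cy3 intensity, were averaged per switch-domain sequence. Clusters outside 100-1000 RFU were excluded.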
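Further: ATP exposure 15 min at 22 °C before imaging.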

With TTTGGTGCCG, the switch fluorescence ratio stood at 1.17 ± 0.23.
The figure for TTCGAACGGG is 1.01 ± 0.016; for GAGTTGCGCG it is 1.01 ± 0.051.
The figure for CTGTTACTGA is 0.999 ± 0.041.
For the sequence TTAGGAGCTT, the switch fluorescence ratio worked out at 1 ± 0.014.
The figure for TTTCTTAGCT is 1.005 ± 0.0046.
For ACGGGGGTTG, the switch fluorescence ratio was determined as 1.03 ± 0.06.
Consider TTCGGCGAGA, for which the switch fluorescence ratio turned out to be 0.989 ± 0.021.
In the case of TAGGTTATGC, the switch fluorescence ratio was 0.974 ± 0.036.
For the sequence TTATTTGGAG, the switch fluorescence ratio turned out to be 0.986 ± 0.025.
Consider TCGGTTAGTG, for which the switch fluorescence ratio came to 0.991 ± 0.036.
Take GGTTTAAATA: the switch fluorescence ratio stood at 1.003 ± 0.0092.
On to AGAAATGATA, for which the switch fluorescence ratio amounted to 1.001 ± 0.0019.
On to TTTTTAAAG, for which the switch fluorescence ratio was found to be 1.022 ± 0.0083.
As to TATGGCAAGG, the switch fluorescence ratio was determined as 1.03 ± 0.051.
Regarding GGTATCGGAA, the switch fluorescence ratio was 0.984 ± 0.055.
GAACGGGGAA: the switch fluorescence ratio was determined as 0.996 ± 0.015.
In the case of ATGTCCGTGG, the switch fluorescence ratio was 0.99 ± 0.014.
For the sequence GAAAGGCTCT, the switch fluorescence ratio turned out to be 0.9793 ± 0.0031.
Then TAAAAGGGGC, with 0.985 ± 0.098; and AGAGTTAAGT, with 0.989 ± 0.032; and TGTGAACGTA, with 1.01 ± 0.052.
As to CATCATTGGG, the switch fluorescence ratio turned out to be 0.993 ± 0.016.
For the sequence ATTTAGTAGT, the switch fluorescence ratio worked out at 0.994 ± 0.057.
Regarding GCACATGAGA, the switch fluorescence ratio was 1.02 ± 0.021.
The figure for TAGAAATCGG is 1.02 ± 0.015; for CCGTAGGAAT it is 1.28 ± 0.068.
Then AGGTCTGGGC, with 0.978 ± 0.074.
As to GATATATAAT, the switch fluorescence ratio worked out at 1.014 ± 0.002.
In the case of CTTTTTTTTA, the switch fluorescence ratio was 0.985 ± 0.021.
GACGGTTGGG: the switch fluorescence ratio was found to be 0.983 ± 0.026.
For TCGCATTGAG, the switch fluorescence ratio worked out at 1.1 ± 0.011.
Then TTCAGTGGGT, with 0.9787 ± 0.009; and TCCGGTTAGT, with 1.04 ± 0.015.
As for CCGGGTTGCA, the switch fluorescence ratio came out at 1.03 ± 0.04.
Turning to CTGATATAAG, the switch fluorescence ratio was 1.03 ± 0.017.
Turning to AGCGTGGTGG, the switch fluorescence ratio came out at 0.958 ± 0.033.
For the sequence ATGTACTCGC, the switch fluorescence ratio worked out at 1.08 ± 0.031.
Take TTTTACTTGC: the switch fluorescence ratio is 1.0115 ± 0.00074.
As to AGTTTGGCAG, the switch fluorescence ratio was found to be 0.998 ± 0.035.
On to AAGGAGGCAA, for which the switch fluorescence ratio is 1.255 ± 0.0085.
The figure for GCGGGACTGT is 1.04 ± 0.046; for ATCAAATAGT it is 1.01 ± 0.037.
For TTGATGTGTT, the switch fluorescence ratio was 1 ± 0.028.
Then GGTAACGTGA, with 1.01 ± 0.023; and CTCTGGGATG, with 1.01 ± 0.064; and TTAATTTGTG, with 0.986 ± 0.017.
The figure for CTCATGGGTT is 1.02 ± 0.0011; for TCTTTGGTGG it is 1.03 ± 0.038; for GCCAAATTGG it is 1.02 ± 0.0071.
On to GTATTAGGGC, for which the switch fluorescence ratio stood at 1.02 ± 0.0034.
For ATAGAGAAGC, the switch fluorescence ratio came out at 1.03 ± 0.025.
Then TTAGAAATGT, with 1.42 ± 0.84; and TCTCGGGTCT, with 1.02 ± 0.045.
For the sequence TAATTGGGGG, the switch fluorescence ratio is 1 ± 0.03.
Consider ATACGGGGTG, for which the switch fluorescence ratio amounted to 1.1 ± 0.035.
For CGCGCAGTCG, the switch fluorescence ratio turned out to be 1.032 ± 0.003.
Consider GTGACGAAGA, for which the switch fluorescence ratio came to 1.033 ± 0.0065.
Then TAAAGGGCT, with 1.001 ± 0.0055; and TAATCAGGGG, with 1.07 ± 0.16; and GAGGGCTGGG, with 0.978 ± 0.079.
The figure for GATGTGGTCT is 1.014 ± 0.0075; for TACAGGAGGG it is 1.01 ± 0.021.
Regarding ACGCGGATTG, the switch fluorescence ratio was found to be 1.002 ± 0.0017.
Consider TTGGTTTACT, for which the switch fluorescence ratio worked out at 1.22 ± 0.3.
For the sequence CGGCTGGGGC, the switch fluorescence ratio is 1.02 ± 0.015.
On to TAAGGGGGCA, for which the switch fluorescence ratio amounted to 1.01 ± 0.052.
In the case of TGTGGTCGGG, the switch fluorescence ratio came to 0.993 ± 0.038.
The figure for GGGCTCTGAC is 1.049 ± 0.0084.
Regarding CCTGGGTTTT, the switch fluorescence ratio stood at 1.06 ± 0.05.
Then TAGGAGAAGG, with 1.04 ± 0.036; and TCTGCGTAAG, with 1.003 ± 0.0065; and GTTGATTTGC, with 1.02 ± 0.089.
CTTGTTCATG: the switch fluorescence ratio turned out to be 1 ± 0.017.
In the case of TTACGCTATT, the switch fluorescence ratio is 3.4 ± 2.4.
TATCATTAGA: the switch fluorescence ratio is 1.01 ± 0.014.
GAATTGGT: the switch fluorescence ratio came out at 1.01 ± 0.012.
TACCTGGTAC: the switch fluorescence ratio was 1.056 ± 0.0043.
